T1: CBP-Upf1-CH-HD I693R (S. cerevisiae, UniProt P30771 54-851, I693R)
T1 sequence: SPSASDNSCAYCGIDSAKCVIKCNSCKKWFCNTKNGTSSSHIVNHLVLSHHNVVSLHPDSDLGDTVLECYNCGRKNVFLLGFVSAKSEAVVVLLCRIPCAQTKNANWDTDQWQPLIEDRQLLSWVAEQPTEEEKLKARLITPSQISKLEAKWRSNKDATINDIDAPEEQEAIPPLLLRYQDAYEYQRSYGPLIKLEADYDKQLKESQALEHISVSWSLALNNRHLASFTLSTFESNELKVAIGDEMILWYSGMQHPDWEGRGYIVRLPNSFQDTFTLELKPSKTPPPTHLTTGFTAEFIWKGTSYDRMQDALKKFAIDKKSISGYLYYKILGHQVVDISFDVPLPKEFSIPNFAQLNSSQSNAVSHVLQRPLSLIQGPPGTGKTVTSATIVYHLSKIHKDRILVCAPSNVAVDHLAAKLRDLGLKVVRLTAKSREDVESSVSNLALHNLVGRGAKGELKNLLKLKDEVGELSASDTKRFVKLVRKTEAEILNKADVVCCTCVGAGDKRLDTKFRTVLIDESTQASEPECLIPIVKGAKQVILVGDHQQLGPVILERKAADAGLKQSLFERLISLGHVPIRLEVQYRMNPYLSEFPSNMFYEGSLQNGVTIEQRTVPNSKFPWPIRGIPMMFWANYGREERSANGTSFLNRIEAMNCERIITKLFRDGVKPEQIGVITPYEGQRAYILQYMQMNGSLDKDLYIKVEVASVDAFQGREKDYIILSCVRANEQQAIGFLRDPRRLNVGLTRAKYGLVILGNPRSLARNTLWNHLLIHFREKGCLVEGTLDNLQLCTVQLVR

T2: Upf1-FL;Nmd4;Dcp2-UBM (Saccharomyces cerevisiae;Saccharomyces …, UniProt P30771;Q12129;P53550 1-971;1-218;434-720, ||)
T2 sequence 1: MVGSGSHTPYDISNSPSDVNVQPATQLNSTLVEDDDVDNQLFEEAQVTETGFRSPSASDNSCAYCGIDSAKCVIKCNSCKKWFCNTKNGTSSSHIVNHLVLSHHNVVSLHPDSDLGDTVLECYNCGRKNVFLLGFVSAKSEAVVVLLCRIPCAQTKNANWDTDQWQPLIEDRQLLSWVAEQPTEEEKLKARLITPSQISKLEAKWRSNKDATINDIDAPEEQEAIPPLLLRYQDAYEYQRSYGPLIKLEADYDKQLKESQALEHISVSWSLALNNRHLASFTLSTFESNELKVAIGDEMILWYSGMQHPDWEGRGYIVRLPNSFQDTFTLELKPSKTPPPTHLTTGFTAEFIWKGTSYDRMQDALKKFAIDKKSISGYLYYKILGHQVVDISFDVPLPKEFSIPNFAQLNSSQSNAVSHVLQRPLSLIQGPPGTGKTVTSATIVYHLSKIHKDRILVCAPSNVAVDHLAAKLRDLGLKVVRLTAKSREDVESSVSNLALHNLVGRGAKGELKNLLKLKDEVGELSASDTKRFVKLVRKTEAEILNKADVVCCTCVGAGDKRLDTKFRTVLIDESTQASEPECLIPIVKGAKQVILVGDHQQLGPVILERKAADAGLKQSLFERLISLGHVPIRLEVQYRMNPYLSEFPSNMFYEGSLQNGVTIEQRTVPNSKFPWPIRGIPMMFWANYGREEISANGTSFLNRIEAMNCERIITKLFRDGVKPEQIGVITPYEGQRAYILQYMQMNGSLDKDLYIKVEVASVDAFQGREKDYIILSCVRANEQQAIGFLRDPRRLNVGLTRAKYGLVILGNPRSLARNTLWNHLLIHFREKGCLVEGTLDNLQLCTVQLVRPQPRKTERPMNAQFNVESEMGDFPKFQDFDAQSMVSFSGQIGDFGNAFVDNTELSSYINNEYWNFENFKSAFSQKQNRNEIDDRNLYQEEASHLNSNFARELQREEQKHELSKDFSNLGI
T2 sequence 2: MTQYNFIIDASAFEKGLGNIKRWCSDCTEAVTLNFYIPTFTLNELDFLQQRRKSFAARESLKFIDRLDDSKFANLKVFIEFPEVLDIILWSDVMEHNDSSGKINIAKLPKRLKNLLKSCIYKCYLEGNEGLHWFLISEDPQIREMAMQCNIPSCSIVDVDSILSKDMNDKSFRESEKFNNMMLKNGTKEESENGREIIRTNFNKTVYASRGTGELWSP
T2 sequence 3: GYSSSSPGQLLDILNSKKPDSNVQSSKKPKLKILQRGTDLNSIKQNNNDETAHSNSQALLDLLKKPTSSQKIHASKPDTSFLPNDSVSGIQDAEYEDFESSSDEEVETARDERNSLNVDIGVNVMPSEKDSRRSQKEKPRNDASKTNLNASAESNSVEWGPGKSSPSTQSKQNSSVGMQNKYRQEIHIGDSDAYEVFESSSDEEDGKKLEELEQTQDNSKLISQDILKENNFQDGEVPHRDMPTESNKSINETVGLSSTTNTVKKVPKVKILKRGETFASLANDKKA

T3: Upf1-FL;Dcp2-UBM (Saccharomyces cerevisiae;Saccharomyces …, UniProt P30771;P53550 1-971;434-720, |)
T3 sequence 1: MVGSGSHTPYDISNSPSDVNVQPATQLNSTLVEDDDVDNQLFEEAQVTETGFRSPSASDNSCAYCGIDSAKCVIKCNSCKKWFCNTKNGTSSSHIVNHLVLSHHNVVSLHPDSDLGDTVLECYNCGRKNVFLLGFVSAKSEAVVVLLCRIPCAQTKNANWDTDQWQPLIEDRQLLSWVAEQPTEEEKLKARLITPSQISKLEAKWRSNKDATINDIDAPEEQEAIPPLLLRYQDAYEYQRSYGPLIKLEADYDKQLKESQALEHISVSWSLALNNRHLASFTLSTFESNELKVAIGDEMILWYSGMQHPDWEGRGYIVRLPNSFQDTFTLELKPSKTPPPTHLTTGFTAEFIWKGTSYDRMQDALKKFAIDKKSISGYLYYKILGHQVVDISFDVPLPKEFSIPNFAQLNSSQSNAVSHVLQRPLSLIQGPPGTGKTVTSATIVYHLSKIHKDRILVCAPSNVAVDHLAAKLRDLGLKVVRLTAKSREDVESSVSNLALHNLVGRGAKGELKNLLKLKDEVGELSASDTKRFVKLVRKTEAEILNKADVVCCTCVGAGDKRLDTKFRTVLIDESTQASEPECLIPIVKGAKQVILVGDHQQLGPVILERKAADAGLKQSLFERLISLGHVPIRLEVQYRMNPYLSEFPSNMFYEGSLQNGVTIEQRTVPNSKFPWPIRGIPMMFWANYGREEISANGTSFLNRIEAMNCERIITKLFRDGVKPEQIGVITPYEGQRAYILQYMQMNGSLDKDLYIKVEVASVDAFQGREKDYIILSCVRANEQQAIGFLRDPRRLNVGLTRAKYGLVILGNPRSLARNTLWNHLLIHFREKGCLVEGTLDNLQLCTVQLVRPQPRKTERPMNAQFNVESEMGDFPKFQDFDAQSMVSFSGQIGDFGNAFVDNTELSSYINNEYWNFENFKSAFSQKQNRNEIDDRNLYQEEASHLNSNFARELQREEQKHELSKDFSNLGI
T3 sequence 2: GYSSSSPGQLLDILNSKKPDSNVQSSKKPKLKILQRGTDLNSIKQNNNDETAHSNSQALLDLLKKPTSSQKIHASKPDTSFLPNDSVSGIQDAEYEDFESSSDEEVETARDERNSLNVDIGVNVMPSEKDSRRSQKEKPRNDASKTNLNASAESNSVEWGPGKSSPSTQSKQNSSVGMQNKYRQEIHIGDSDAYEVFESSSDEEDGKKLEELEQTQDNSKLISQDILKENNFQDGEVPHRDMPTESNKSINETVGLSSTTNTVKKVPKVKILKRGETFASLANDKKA

T4: Dcp2-UBM (Saccharomyces cerevisiae, UniProt P53550 434-720)
T4 sequence: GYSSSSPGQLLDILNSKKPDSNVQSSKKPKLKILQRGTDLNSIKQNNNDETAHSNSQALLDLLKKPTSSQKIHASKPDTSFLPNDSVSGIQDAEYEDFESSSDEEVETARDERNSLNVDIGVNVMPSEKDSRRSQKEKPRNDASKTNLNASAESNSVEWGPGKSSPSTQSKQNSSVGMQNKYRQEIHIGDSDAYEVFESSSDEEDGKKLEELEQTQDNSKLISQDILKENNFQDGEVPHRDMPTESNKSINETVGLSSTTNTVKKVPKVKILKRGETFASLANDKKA

T5: Upf1-FL;Nmd4 (Saccharomyces cerevisiae;Saccharomyces …, UniProt P30771;Q12129 1-971;1-218, |)
T5 sequence 1: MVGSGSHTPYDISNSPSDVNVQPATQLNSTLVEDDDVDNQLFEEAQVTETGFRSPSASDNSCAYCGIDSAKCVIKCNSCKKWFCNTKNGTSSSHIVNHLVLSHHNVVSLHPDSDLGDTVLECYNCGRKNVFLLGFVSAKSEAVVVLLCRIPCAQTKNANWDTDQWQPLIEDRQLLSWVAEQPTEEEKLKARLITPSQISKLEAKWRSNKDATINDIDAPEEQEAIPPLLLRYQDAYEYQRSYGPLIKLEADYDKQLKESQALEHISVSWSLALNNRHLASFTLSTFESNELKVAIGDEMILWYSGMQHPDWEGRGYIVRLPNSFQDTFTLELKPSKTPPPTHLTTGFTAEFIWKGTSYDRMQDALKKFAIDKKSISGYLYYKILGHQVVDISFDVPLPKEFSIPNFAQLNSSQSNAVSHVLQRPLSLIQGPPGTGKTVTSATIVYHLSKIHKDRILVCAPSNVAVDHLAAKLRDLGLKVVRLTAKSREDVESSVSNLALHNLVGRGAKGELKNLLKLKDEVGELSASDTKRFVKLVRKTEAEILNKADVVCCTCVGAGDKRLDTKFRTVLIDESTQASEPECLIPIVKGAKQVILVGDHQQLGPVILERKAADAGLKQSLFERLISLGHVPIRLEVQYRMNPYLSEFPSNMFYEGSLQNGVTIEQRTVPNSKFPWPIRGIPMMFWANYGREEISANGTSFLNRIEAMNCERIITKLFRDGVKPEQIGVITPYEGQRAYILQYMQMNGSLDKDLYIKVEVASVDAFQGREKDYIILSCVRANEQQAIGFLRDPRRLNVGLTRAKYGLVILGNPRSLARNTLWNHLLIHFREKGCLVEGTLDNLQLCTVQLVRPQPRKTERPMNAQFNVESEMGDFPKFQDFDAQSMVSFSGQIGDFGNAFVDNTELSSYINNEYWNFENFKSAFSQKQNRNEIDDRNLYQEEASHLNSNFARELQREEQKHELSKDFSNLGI
T5 sequence 2: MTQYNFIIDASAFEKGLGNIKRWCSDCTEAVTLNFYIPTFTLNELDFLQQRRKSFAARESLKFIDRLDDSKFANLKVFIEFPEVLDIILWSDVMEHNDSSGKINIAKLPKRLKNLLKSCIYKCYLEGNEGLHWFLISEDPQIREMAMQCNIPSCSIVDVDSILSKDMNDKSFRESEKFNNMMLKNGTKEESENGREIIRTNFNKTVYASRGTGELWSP

T6: Upf2-Ct (Saccharomyces cerevisiae, UniProt P38798 933-1089)
T6 sequence: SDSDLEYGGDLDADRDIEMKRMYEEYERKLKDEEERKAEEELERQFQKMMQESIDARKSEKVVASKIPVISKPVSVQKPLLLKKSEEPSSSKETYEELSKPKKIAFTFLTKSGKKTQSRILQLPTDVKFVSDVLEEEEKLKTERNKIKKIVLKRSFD

T7: Upf1-FL (Saccharomyces cerevisiae, UniProt P30771 1-971)
T7 sequence: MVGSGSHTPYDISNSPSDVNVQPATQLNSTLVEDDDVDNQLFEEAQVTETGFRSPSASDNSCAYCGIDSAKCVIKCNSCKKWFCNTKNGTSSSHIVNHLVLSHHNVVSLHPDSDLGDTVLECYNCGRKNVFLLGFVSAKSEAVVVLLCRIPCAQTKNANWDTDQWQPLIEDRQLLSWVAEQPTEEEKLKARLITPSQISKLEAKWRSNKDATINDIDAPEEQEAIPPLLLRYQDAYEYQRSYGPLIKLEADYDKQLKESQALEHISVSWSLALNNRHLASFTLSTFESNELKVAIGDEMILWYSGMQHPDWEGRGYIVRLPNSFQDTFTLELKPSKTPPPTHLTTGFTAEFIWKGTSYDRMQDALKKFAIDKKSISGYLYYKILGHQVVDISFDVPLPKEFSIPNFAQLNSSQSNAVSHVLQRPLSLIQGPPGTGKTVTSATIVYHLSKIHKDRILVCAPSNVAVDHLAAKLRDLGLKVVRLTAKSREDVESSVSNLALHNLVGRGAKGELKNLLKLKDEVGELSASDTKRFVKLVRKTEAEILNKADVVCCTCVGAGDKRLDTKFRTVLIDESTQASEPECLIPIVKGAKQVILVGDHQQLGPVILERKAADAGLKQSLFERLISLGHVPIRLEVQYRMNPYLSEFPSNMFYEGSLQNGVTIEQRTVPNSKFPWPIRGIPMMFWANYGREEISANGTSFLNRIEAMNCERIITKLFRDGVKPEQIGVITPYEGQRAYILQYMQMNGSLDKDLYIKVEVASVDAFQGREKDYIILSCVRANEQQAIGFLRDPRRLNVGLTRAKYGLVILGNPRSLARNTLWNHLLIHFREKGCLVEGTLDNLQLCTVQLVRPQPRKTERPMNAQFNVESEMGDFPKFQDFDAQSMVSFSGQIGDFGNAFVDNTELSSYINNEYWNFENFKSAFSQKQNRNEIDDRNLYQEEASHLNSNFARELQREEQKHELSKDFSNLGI


Tests used:
CBP-Upf1-CH-HD I693R = target: T1, CBP-Upf1-CH-HD I693R; assay: pull-down
[1] = target: CBP-Upf1-CH-His (S. cerevisiae); assay: fluorescence polarisation
Upf1-FL;Nmd4;Dcp2-UBM = target: T2, Upf1-FL;Nmd4;Dcp2-UBM; assay: pull-down
Upf1-FL;Dcp2-UBM = target: T3, Upf1-FL;Dcp2-UBM; assay: pull-down
Dcp2-UBM = target: T4, Dcp2-UBM; assay: pull-down
Upf1-FL;Nmd4 = target: T5, Upf1-FL;Nmd4; assay: pull-down
Upf2-Ct = target: T6, Upf2-Ct; assay: pull-down
Upf1-FL = target: T7, Upf1-FL; assay: pull-down

| Binder | binding result (CBP-Upf1-CH-HD I693R) | Kd [1] | binding result (Upf1-FL;Nmd4;Dcp2-UBM) | binding result (Upf1-FL;Dcp2-UBM) | binding result (Dcp2-UBM) | binding result (Upf1-FL;Nmd4) | binding result (Upf2-Ct) | binding result (Upf1-FL) |
| --- | --- | --- | --- | --- | --- | --- | --- | --- |
| Upf2 (933-1089)-His (domain or fragment) SDSDLEYGGDLDADRDIEMKRMYEEYERKLKDEEERKAEEELERQFQKMMQESIDARKSEKVVASKIPVISKPVSVQKPLLLKKSEEPSSSKETYEELSKPKKIAFTFLTKSGKKTQSRILQLPTDVKFVSDVLEEEEKLKTERNKIKKIVLKRSFD | binds | 430 nM |  |  |  |  |  |  |
| CGUCCAUCUGGUCAUCUAGUGAUAUCAUCG (ssRNA) [3'-biotinylated RNA (30-mer in Methods, called 33-mer in Results)] |  |  | binds | binds | no binding | binds | no binding | binds |

From paper PMC11897886 (Nucleic Acids Research, 2024)
